Experiment: soluble on expression in E. coli; label from the status in PepcDB or PDB records

| Sequence | soluble on expression in E. coli |
| --- | --- |
| PFKKRRTEDEIRKQCPWATLGRKGGRQPNIITSLELDSAVMEQNNLRFQKKYAEIEANEVRYEEYQTEDADYILVAFGSSARICNKTVQLARQQGIKAGILRPITLWPFPTKEIAKLADRAKGFLVAELNAGQMIEDVRLAVNGKVPVEHYGRMGGMLFSPDEILQALKEKVIK | not soluble |
| PHFLILNGPNVNRLGSREPEVFGRQTLTDIETDLFQFAEALHIQLTFFQSNHEGDLIDAIHEAEEQYSGIVLNPGALSHYSYAIRDAVSSISLPVVEVHLSNLYAREEFRHQSVIAPVAKGQIVGLGAEGYKLAVRYLLSQQG | soluble |
| PIVGRIIHIENQQLNEYTGNYSSFENQRAQKMMLQQAMFEKQQKQMSHMQSYIDRFRYKASKARQAQSRIKALERMEKVLPAQFDNPFSFEFRQPAALPNPIMMMDDVSAGYGDNLILEKIRLNLVP | not soluble |
| PKQRCRAPACDHFGNAKCNGYCNECFQFKQMYG | soluble |
| PLPATANSHEYLLDNGLKLVVKEDHRSPVVIQQVWYKAGSMDEVNGTTGVAHALEHMMFKGTDSVLAGEFSRKIAAIGGKENAFTSRDYTAYYQQLHQRHLPMAMELESDRMHNLQLTEEAFAKEIQVVMEERRLRTDDQAHSLLYEKMMATAFQTHPYRRPVIGWMNDLENMQVNDARDWYQRWYAPNNAVLVVVGDVDPENVFVLAKKYYGRF | not soluble |
| PLQEERLQRLQDRMVVPFDETRPDHQESLKALWNVAFPNVHLTGLVTEQWKEMGWQGPNPSTDFRGCGFIALENLLFSARTYPVNYSLLLKQRGDRAKWEYPFAVAGINISFMLIQMLDLQNNQDERAFDVLYCIAFAMMDAQWLAMHASYMEFNEVLQATRNQLERELSLDDIHRIQDLPAYNLLFQ | not soluble |
| PMMPPVGVQASILSHDTIRITWADNSLPKHQKITDSRYYTVRWKTNIPANTKYKNANATTLSYLVTGLKPNTLYEFSVMVTKGRRSSTWSMTAHGTTFEL | soluble |
| PQFEKIEGRMIRILYLLVKPESMSHEQFRKECVVHFQMSAGMPGLHKYEVRLVAGNPTDTHVPYLDVGRIDAIGECWFASEEQYQVYMESDIRKAWFEHGKYFIGQLKPFVTEELV | soluble |
| PQPGAARGLGRVAYADARQHRDILQSLVRALNGSRRRIWLATPYFLPTWKVRRALRKAAQRGVEVRLLLAGRLTDHAPVRYAGQRYYPRLLRAGVRIHEYQPRFLHLKMVMVDDWVSVGSCNFDHWNLRFNLDANLEALDPDFTNEAAASLLADFADSREVTLAMWRARPLWMR | not soluble |
| PRRLEPLIEDGLIDEVVRPLMSGKEASVYVVRCGDSLRCAKVYKEANKRSFRQAAEYQEGRKVRNSRQARAMAKGSKYGRREQEEAWQNAEVAALFRLAGAGVRVPKPYDFLDGVLLMELVADADGDAAPRLNDVTLEPDEARRHHAFLIRQIVAMLCAGLVHGDLSEFNVLLGPDGPVIIDLPQAVDAAGNNHAFSMLERDVGNMAAYFGRFAPELRQTRYAKEMWALYEAGELTAETPLSGTFVEAEEAADVRAVLREIEAAQREEARRQALRQADDAPRGEREE | not soluble |
| PTSLEKLPSADVKGQDLYKTQPPRSDAQGGKAYLKWICITCGHIYDEALGDEAEGFTPGTRFEDIPDDWCCPDCGATKEDYVLYEEK | soluble |
| PVAVYTTHDPQALKITGNRLSCEWLRIPPGTNLSKSAHEGERPEFFKLFKDGVEIPPEKMPSQLSAAGIEVNDCELDIVSADGRIRHVLGNARPLRDEN | not soluble |
| PVKVVVGKTFDAIVMDPKKDVLIEFYAPWCGHCKQLEPIYTSLGKKYKGQKDLVIAKMDATANDITNDQYKVEGFPTIYFAPSGDKKNPIKFEGGNRDLEHLSKFIDEHATKRSRTKEEL | soluble |
| PVLFLALPALAQERKKVGVVLSGGGAKGVAHIQALKVIEEAGIPIDYIVGTSMGSIIGGLYSIGYTPQQLDSMVRKQDWMFLLSDRVKRSAMSLNEREKSEKYVFSFPFTKSPKDAVSGGIIKGQNLANLFTELTVGYHDSVDFNKLPIPFACVSQNIVNGEQIVFHNGILATAMRASMAIPGVFTPVRKDSMILIDGGMINNYPVDVARSMGADIIIGVDVQNNLKGID | not soluble |
| QALIKEARLTPKPGLVDSTNNGSHQDMSLSTFEQSAIALRPFFTQFVLMGIETTNLPDSHILSKIRPLGLQAEQAMFVATNQVNTHKGAIFAFGLVCTALGRHFSRWQNKMMSSPSFEISQDTTGISLISETVARFTQGITDELKNYSKNQPLTAGITLYQQYGFTGARGEAEKGFPLVQQAVVFILSQAESEMRWYWALLYLMANNNDTNIVHRGGINGLQFIQDEAHKRLGNAKNLQNANALMASLREFDDDCIARNLSPGGSADLLALTIFFLSLLYC | not soluble |
| QAVGGKIADDAQKVAGLYAEKKRTNWTQANGVAGKISHKIQSLLGMRDAGSRVQAFVAFMADGKGRPGATMLDLGDGWMRATRVIKGEAALIDFQCDSDGKVVDARHPGRFPVLPQGNEREAFKTVLQELKFRGAETLSKVPVYYVNRNTRGYVIPTHGYVVAGHPNRGRKSGAVLYGVGGDPKRGPVALDEKLLGHLVGRSDSKTSSKLSAPVKAAISALAGASFATREDFYDAYCAVRGDAVDPLERHNEISSIYRLLPLSTMEMWPKKADDYRVARPAAPERDLRAFENLPKDIGRKAQLKKVSNVDSIDLLEAKRQFTLHQLYQDEMLGRNGTGVPSADFKPKVDAQRRDQLVASTPKFQRLPPHTTDKVGNCNTGASSLLQRAVDTYTEKNNLPPEKVTAASIFGIGSSHRLAIWDPLDGSSSNKSSKDR | not soluble |
| QEKSARDLMIAVDLSGSMAVEDFTLPIATNELTNRAKNDTDSSATKSSTNDTGKGEKVNRLVAVKHVLNAFVKSREHDRLGLILFGDAPYLQAPFTDDIATWQALLNESDIGMAGQSTAFGDAIGLAISVFQQSDTQNRVLIVLTDGNDTASKVPPVEAAKVAAARDIKIYTIAIGDPSAVGEEKVDLEVLQAMAEITQGKSFQALNSEELLKVYAEI | not soluble |
| QIVDCWETWSRCTKWSQGGTGTLWKSCNDRCKELGRKRGQCEEKPSRCPLSKKAWTCICY | soluble |
| QIVLTQSPAIMSASPGEKVTMTCSASSSVSYMHWYQQKSGTSPKIWIYESSKLASGVPVRFSGSGSGTSYSLTISSMEAEDVATYYCQQWSSHPHPLTFGAGTKLELKRADAAPTVSIFPPSSEQLTSGGASVVCFLNNFYPKDINVKWKIDGSERQNGVLNSWTDQDSKDSTYSMSSTLTLTKDEYERHNSYTCEATHKTSTSPIVKSFNRNEC | soluble |
| QLLGATVVEHNPLYTAHELEGLFQDHGARVAIAWDKAASTLEKLRDTTSLETIISVNMTEAMPRIQQLALRIPIPPIAAKREQLTAFADNTVPWSTLIGNAIGGNGKRTEFPKVTKDDIALILYTSGTTGTPKGALLSHGNLVSNCFMGKAWVPGLGDQPER | not soluble |
| QLVIERVSLPNPGKEKMTQALLTYVRRQGLSSLNWTPAAESLLERIRCAVDWLPEQAWPMFDEASLLDSLDEWLEPYMTSVA | not soluble |
| QSTIKIVLIEDTKTLDEVVVIGYGTQKKSDVSGSVTSVSGDKLSKIPTANAEMALQGMAPGLSVNFGSGAAGSSATLQVRGVTSWKDDDGENSESNGPLVIIDGVPGNMSYLNPEDIKSISVLKDAATAAIYGSRSAAGVILIETHRGT | not soluble |
| QTVLKPKVYVRARPKDMNGQGALLSGSVVDIGSGAIENRGGLIAGREALILNAQNIKNLQGDLQGKNIFAAAGSDITNTGSIGAEN | not soluble |
| QVAKNPAPQAVEQAQSSSSLPAPSFADELDPVPGQQQASAKTITVTTDVLTLSIDTVGGDVVHADLNQYSAELDSSDPFVLLKDTQGHQFIAQSGLVGPQGIDLSSSNRPHYNVSADSFTLADGQDELRVPMTFTANGIEYTKTYVLKRGSYALNVEYDVANNSGNNATFGMYAHLRQNLMDAGGSITMPTYRGGAYSTEDTRYKKYSFEDMQDRNLSINLADGQGWAAMIQHYFAAAWIPRNEPGTNLYTRVIGNLGDIGVRMPNKTIATGDQAKFEATLWVGPKLQQEMAAVAPNLDLVVDYGWLWFIAKPLHS | not soluble |
| QVQLVESGGGSVQAGGSLRLSCTASGYTIGPYCMGWFRQAPGGEREAVAAINMGGGITYYADSVKGRFTISRDNAKNTVTLQMNSLKPEDTAMYYCAADSTIYASYYECGHGLSTGGYGYDSWGQGTQVTVSSRGRHHHHHH | soluble |
| QVQLVESGGNLVQPGGSLRLSCAASGFTFGSFSMSWVRQAPGGGLEWVAGLSARSSLTHYADSVKGRFTISRDNAKNSVYLQMNSLRVEDTAVYYCARRSYDSSGYWGHFYSYMDVWGQGTLVTVS | soluble |
| QVSDEDVMLMIRQGAKKGVFESVEYEMISRIFRMSDKRASALMTPRNEIEWLDLERPDEELVARIKASGRSRFPVAKGSLDELQGVVRSLDLVNFSLSSKGSIREAIRASMKPPLFVPESVPAFHVLELFKKNRAHMALVIDEHGSVQGAITLTDVLESIVGDVPADDMEGD | not soluble |
| QYRPMSEKQFSRPVLIVPPQINKYYIFDLSPANSFVQYALKNGLSTFIISWRNPDIRHREWGLSSYVEAAEQAMNICRAISGAREVNLVGACAGGLTIAALLGHLQVKRQTRRVASATYMVSLLDSQIDSPATLFIDEQALEAAKRRSYQRGVLEGSEMSRVFSWMRPNDLIWTYWINNYLLGKSPPPFDILYWNNDTTRLPAALHGDLLDFFKHNPLSHAGGLEVCGTPIDLQKVTVDSFSVAGINDHITPWDSVYRSTLLLGGDRRFVLANSGHVQSILNP | not soluble |
| RCGAGGYEALRGPLGAAGRRARQAWTIAPGSRRRGKAAAQSSVPGAGHAGGGAAPRRPAAAVRPGSPPLAGALTPRPSPLQGPFPGRLLAGPPPRFPGGTMTDTRRRVKVYTLNEDRQWDDRGTGHVSSGYVERLKGMSLLVRAESDGSLLLESKINPNTAYQKQQDTLIVWSEAENYDLALSFQEKAGCDEIWEKICQVQGKDPSVDITQDLVDESEEERFDDMSSPGLELPSCELSRLEEIAELVASSLPSPLRREKLALALENEGYIKKLLELFHVCEDLENIEGLHHLYEIIKGIFLLNRTALFEVMFSEECIMDVIGCLEYDPALSQPRKHREFLTKTAKFKEVIPISDPELKQKIHQTYRVQYIQDMVLPTPSVFEENMLSTLHSFIFFNKVEIVGMLQEDEKFLTDLFAQLTDEATDEEKRQELVNFLKEFCAFSQTLQPQNRDAFFKTLSNMGILPALEVILGMDDTQVRSAATDIFSYLVEYNPSMVREFVMQEAQQNDDDILLINLIIEHMICDTDPELGGAVQLMGLLRTLVDPENMLATANKTEKTEFLGFFYKHCMHVLTAPLLANTTEDKPSKDDFQTAQLLALVLELLTFCVEHHTYHIKNYIINKDILRRVLVLMASKHAFLALCALRFKRKIIGLKDEFYNRYIMKSFLFEPVVKAFLNNGSRYNLMNSAIIEMFEFIRVEDIKSLTAHVIENYWKALEDVDYVQTFKGLKLRFEQQRERQDNPKLDSMRSILRNHRYRRDARTLEDEEEMWFNTDEDDMEDGEAVVSPSDKTKNDDDIMDPISKFMERKKLKESEEKEVLLKTNLSGRQSPSFKLSLSSGTKTNLTSQSSTTNLPGSPGSPGSPGSPGSPGSVPKNTSQTAAITTKGGLVGLVDYPDDDEDDDEDEDKEDTLPLSKKAKFDS | soluble |

From the DeepSol protein solubility set
